# The supplement of paper PMC10567573
# ± gives the standard deviation.
# Assay: protein stability index of a GFP-peptide fusion (GPS, HEK-293T) (PSI 1-6); higher = more stable
# [1] = treatment: DMSO, c terminus: a fixed tail appended
# [2] = treatment: MLN4924 1 uM, 8 h, c terminus: a fixed tail appended
# 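Further: 24-mer peptide tiles fused after GFP, lentivirally expressed, FACS-sorted into six equal bins by GFP/DsRed ratio, decoded by Illumina sequencing, PSI is the read-weighted mean bin number.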
Sequence,protein stability index [1],protein stability index [2],"protein stability index (treatment: DMSO, c terminus: native)","protein stability index (treatment: MLN4924 1 uM, 8 h, c terminus: native)"
SSLTADLLSVDAFAAPSPATTASP [SNAP91],4.65 ± 0.19,4.7 ± 0.083,–,–
SSNLGQHQRIHTGEKPFECNECGK [ZNF232],4.78 ± 0.22,5.01 ± 0.19,–,–
SSSFTSIASEWFLIANRSYKVSAA [SLC22A15],2.26 ± 0.47,2.42 ± 0.31,–,–
SSSLAQHQRKHAGEKPFECRQRLI [ZNF8],3.74 ± 0.18,3.69 ± 0.17,–,–
STDSGFCLDSPGPLDSKENLENPM [CDC25A],5.32 ± 0.12,5.27 ± 0.14,–,–
STKMDCVWSNWKSQAIDLLYWRDI [RTN1],2.37 ± 0.34,2.27 ± 0.28,–,–
STPAPAERPLPNPEGLDSDFLAVL [SLA],4.29 ± 0.35,4.26 ± 0.21,–,–
STPRCAQQAALPRLSRRMASQHSY [CBY2],2.3 ± 0.29,2.37 ± 0.079,–,–
STSFMSSSSSSSSWLTRRAIRPEN [EMD],3.39 ± 0.35,3.38 ± 0.16,–,–
SVGHNWRKRMGTRRGRHEQSPTSR [C22orf15],4.32 ± 0.065,4.49 ± 0.25,–,–
SVTGLDPEARYLFLLDVIPVDGAR [TBX6],2.15 ± 0.47,2 ± 0.13,–,–
SVTLEDVTPKKSPPPKTNLTPGQS [FAN1],5.11 ± 0.18,5.24 ± 0.34,–,–
SWNVAVKFLMARKFDVLRAIELFH [PTPN9],2.18 ± 0.25,2.31 ± 0.6,–,–
SYDELCFLEQRPQSPTLEFLLRNS [EDARADD],3.1 ± 0.2,3 ± 0.1,–,–
TAAFTTAKAAALSTKTPAPCSEFM [SPAG8],3.67 ± 0.14,3.84 ± 0.24,–,–
TAGPITGLVYRLNRFRVEISFHFE [TRIM43],3.02 ± 0.7,3.2 ± 0.52,–,–
TEDLCEKPDDEVKETAHDLDVKSP [RIPK4],5.8 ± 0.26,5.62 ± 0.27,–,–
TEDVNTLDSEKRTPLHVAAFLGDA [ANKRD44],4.72 ± 0.3,4.74 ± 0.11,–,–
TEGVTQLKLTVVEDVTVGRRQAVA [ZFYVE21],4.07 ± 0.18,4.12 ± 0.19,–,–
TENRGNEKEFMKGNQLISNNIKFK [CLCN6],4.43 ± 0.28,4.52 ± 0.11,–,–
TGGADAYYEMGIHCWDVAGAGIIV [IMPA1],2.83 ± 0.79,2.97 ± 0.85,–,–
TGSYNNFFRMFDRNTKRDVTLEAS [PPP2R2B],3.1 ± 0.26,3.47 ± 0.33,–,–

Sequence,protein stability index [1],protein stability index [2],"protein stability index (treatment: DMSO, c terminus: native)","protein stability index (treatment: MLN4924 1 uM, 8 h, c terminus: native)"
THGVGLVLRVEQQPHLPLLSTLAG [SCNN1D],2.12 ± 0.23,2.17 ± 0.15,–,–
THLLKQGRSSMGTGLSGGKRPSQE [CRY1],4.35 ± 0.18,4.53 ± 0.33,–,–
TIEERVNILFDFVKKKKEEGVIDS [EIF5],3.68 ± 0.065,3.39 ± 0.29,–,–
TIHGLIYNALKLFMEMNQKLFDDC [PPP2R5C],2.93 ± 0.33,2.89 ± 0.45,–,–
TIRSGISPNLNVVDGRLTYPTCGI [SASS6],2.86 ± 0.42,3.02 ± 0.26,–,–
TIVEEVQDGKVISSREQVHQTTR [KRT17],–,–,5.03 ± 0.23,5.08 ± 0.25
TKKHIPYREHKSLTGTARYMSINT [CSNK1G1],2.51 ± 0.15,2.65 ± 0.23,–,–
TKRSTLIISGVSKVPIAQDELALS [C2CD2L],3.16 ± 0.17,3.14 ± 0.19,–,–
TLDGYGIHPKSIDLDNYFTARRLL [NFE2L1],2.37 ± 0.41,2.28 ± 0.26,–,–
TLEGHQRAIMAHMTVEEIYKDRQK [FLOT1],4.52 ± 0.13,4.7 ± 0.19,–,–
TLGSSFIPGEHFWLLLLTRGLVGV [SPNS1],3.15 ± 1.4,3.21 ± 0.84,–,–
TLHNLSHHREGLLAIFKSGGIPAL [CTNNB1],2.4 ± 0.11,2.38 ± 0.24,–,–
TLRQKTVDWRRVSRLQEDPEGTEN [SLA],4.87 ± 0.27,4.79 ± 0.52,–,–
TLSWYFLLCVNYFFYGETVTDYFF [CDS2],3.35 ± 0.64,3.48 ± 0.26,–,–
TLYRNRSNLETIFRIIDSDHSGFI [PPEF2],2.06 ± 0.4,1.99 ± 0.099,–,–
TMLIVHHRTHTGERPYGCDECEKA [ZNF649],3.75 ± 0.32,3.7 ± 0.49,–,–
TNFEGPPRLKEDQPWMVIEGIRQT [FSD1],3.5 ± 0.082,3.75 ± 0.33,–,–
TPAEGDTEEDDGFVDILESDLKDD [CDC25B],5.34 ± 0.3,5.62 ± 0.24,–,–
TPTSPECDYSQYFKTIEELRDKIM [KRT15],3.4 ± 0.27,3.6 ± 0.43,–,–
TQSVMGFDPLPPSDTIYSYVRPER [TCF25],3.52 ± 0.32,3.73 ± 0.12,–,–
TQVKVVKFSYMWTINNFSFCREEM [SPOPL],2.65 ± 0.92,2.77 ± 0.72,–,–
TRAPQRAHEVLQELRDISSMAMEY [FBXO28],3.44 ± 0.11,3.48 ± 0.3,–,–
